Measured values taken from article PMC314469, “Protein Interaction Networks by Proteome Peptide Scanning” (PLoS Biology, 2004).

T1: amphyphisin SH3 (AMPH_HUMAN), P49418
T1 chain: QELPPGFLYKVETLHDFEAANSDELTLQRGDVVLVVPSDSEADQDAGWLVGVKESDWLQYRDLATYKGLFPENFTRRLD


Columns and labels:
[1] = target: T1, amphyphisin SH3 (AMPH_HUMAN), P49418; experiment: SPOT array
[2] = target: endophilin SH3 (SH3G2_HUMAN), Q99962; experiment: SPOT array

normalised SPOT signal, Boehringer light units (BLU); mean over the file's lines of this peptide [1]	normalised SPOT signal, Boehringer light units (BLU); mean over the file's lines of this peptide [2]	Binder
672	291	EDALPTRPKKRARS [Q9UPW0 160-173]
122	0	EEIALERPEKEIRN [Q9H5F4 313-326]
218	1440	AETRPHRPPGARDS [Q9H021 747-761]
70.7	67.4	AERPPSKPPPVELR [Q14203 913-927]
25	21.3	EEKVPEKPPTPKES [Q9HDC5 18-32]
38.7	16.2	EDVLLRRPKSTPDM [Q9NUD7 336-349]
17.2	51.2	AFVNFRRPEDARAA [Q96T37 218-231]
231	211	EASSPARPSKHSVG [Q92932 121-134]
154	150	EEEELARPPREQGQ [Q14767 745-758]
27.1	2060	EGHRPRRPRGALPP [Q9UGQ7 111-124]
3170	104	EAQFFLRPLRSYGD [P78357 768-781]
28.7	59.8	EEVPPHKPPTLPLD [Q9BXF3 1468-1482]
29.7	1570	EGAAPRRPGFWGSL [Q92988 19-32]
0	0	EALEIPRPLRALDQ [Q9HCK4 1228-1241]
20100	2630	EDFVPFRPRRSPRM [Q14202 277-290]
35.6	15.6	EDEEPKRPLPRKQS [Q9BZ71 330-343]
53.6	1650	EARKPAKPPVSPKP [Q8WXD9 1216-1230]
35.9	42.8	EALKLRRPPDASGA [P24530 73-86]
282	141	EFGLPGRPGRPGLN [P39059 904-917]
34.7	74.7	EDAKLRRPMVIEII [Q9NZ29 33-46]
836	678	EERPLRRPRPVQRT [Q9H7J2 535-548]

normalised SPOT signal, Boehringer light units (BLU); mean over the file's lines of this peptide [1]	normalised SPOT signal, Boehringer light units (BLU); mean over the file's lines of this peptide [2]	Binder
109	8260	EEVVPPRPPLPRSY [CAD38934 123-137]
72.5	-0	EGAVPRRPEDALLL [Q96ML3 90-103]
27.1	51.5	EGISLRRPNSFGIA [O95444 608-621]
52.1	62.6	EASGPERPPALLQE [Q03431 573-587]
38.2	14.7	EERALRRPGHLYLL [Q8WZ07 124-137]
59	211	EASIFRRPYYVSHF [O15360 570-583]
66.6	0	EGHALRRPPPRWLL [Q8WUK7 5-18]
23.2	21.4	EGEEPKRPPGISER [Q9NS96 504-517]
83.5	75.8	EEAQIFRPLKFNTT [Q15029 572-585]
33.5	55.6	EDSIPKRPVSSIPL [Q8WTV4 223-236]
9000	9090	EDRLPRRPARSGGP [Q9UGK6 43-56]
42.6	40.3	EGIPFRRPSTYGIP [P78347 404-417]
32.4	201	EESLPKRPLGKHSK [Q8WYQ9 81-94]
18	15.2	EEAALKRPEIISTV [Q9NU22 363-376]
12700	508	EEPKILRPPRRPRK [Q9NYS8 1484-1497]
39.7	0.7	EEASFRRPHPDGDV [Q9UBD0 73-86]
6800	382	EDPPPTRPSRPWRD [Q9UIG4 62-75]
145	154	AFPRPKRPAPAQEA [Q9BQ84 248-261]
41.5	58.1	EDVKPFKPPLSDAE [Q9UJV1 144-158]
4.2	26.3	EEEPPRRPRARSSE [O60301 1-14]
483	22.8	EDKALPRPIRPHRN [O75163 272-285]
